Data: the nanobody polyreactivity screen of Harvey et al. (2022)

Experiment: yeast display, Sf9 membrane polyspecificity reagent, FACS + sequencing; frameworks hold sequencing errors
Procedure, shortened: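 Synthetic nanobody libraries on Saccharomyces cerevisiae BJ5465 were galactose-induced for 36–48 hours, stained 1 hour at 4 °C with 10% biotinylated, detergent-solubilized Sf9 membrane reagent and enriched on streptavidin microbeads. FACS then separated cells into low and high (top ~1%) gates by anti-HA (expression) and streptavidin (reagent binding) fluorescence. Genes were colony-PCR amplified, MiSeq 2 × 250 sequenced and CDR-length filtered. A clone's polyreactivity label is that of its gate of origin.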

Sequence	polyreactivity (PSR sort gate)
QVQLVESVGVLVQAGGSLPLSCAASGFTFQQYAMGWYRQAPGKERELVAAISWSGGSTNYADSVKGRFTISRDNAKNTVYLQMNSMKPEDTAVYYCAAYLRYYRKEVGYSSMNYWGQGTQVTVSS	high polyreactivity
QVQLVESGGGLVQAGGSLRLSCAASGRTFIGYNMGWYRQAPGKERELVAAITWNGGRTYYADSVKGRFTISRDNAKNTVYLQMNSLKPEDTAVYYCAAPRRVVIGGGDYWGQGTQVTVSS	high polyreactivity
QVQLVETGGGIVQARGRLRLSCAASVITFTGYAMGWYRPAPGKERELVAAITSGGGRTYYADSVKGRFTISRDNAKNTVYLLMNSLKPEDTAVYYCNARGQSRYGYWGQGTQVTVSS	high polyreactivity
QVQLVETGGGLVQAGGSLRLSCAASGSIFHYYAKGWYRQAPGKERELVAAISWSGVTTYYADSVKGRFTISRDNAKNTVYLQMNSLKPEDTAVYYCAADSWRYPYYYWGQGTQVNVSS	high polyreactivity
QVQLVESGGGLVQAGGSLRLSCAASGFTFDINAMGWSRQAPGKERELVAAISRSGGRTYYADSVKGRFTISRDNAKNTVYLQMNSLKPDDTAVYYCAARYPERRYNTFDYWGQGTQVTVSS	high polyreactivity
QVQLVESGGGLVQAGGSLRLSCAASGSIFLIYAMGWYRQAPGKERELVAAISSGGSTYYADSVKGGFTISRDNAKNTVYLQMNSLKPEDTAVYYCATYSTSVGYHLYYWGQGTQVTVSS	low polyreactivity
QVQLVESGGGLVQAGGSLRISCAASGSTFEYYAMGWYRQAPGKERELVATISIDGRTNYADSVKGRFTISRDNAKNTVYLQMNSLKPEDTAVYYCAARPYWRHRYDYWGQGTQVTVSS	low polyreactivity
QVQLVESGGGLVQAGGSLRLSCAASGRIFNLYVMGWYRQAPGKERELVATISSGGSTNYADSVKGRFTISRDNAKNTVYLQMNSLKPEDTAVYYCAAREWRSFDYWGQGTQVTVSS	low polyreactivity
QVQLVESGGGLVQEGGSLRLSCAASGFTFNNYAMGWYRQAPGKERELVAAISSVGRTYYAYSVKGRFTISRDNAKNTVYLQMISLKPEDTAVYYCNRRWYTHWGQGTQVTVSS	high polyreactivity
QVQLVESGGGLVQAGGSLRLSCAATGSIFYGNAMGWYRQAPGKERELVAAISWGAGSTYYADSVKGRFTISRDNAKNTVYLQMNSLKPEDTAVYYCNTLQITGWYDYWGQGTQVTVSS	high polyreactivity
QVQLVESGGGLVQAGGSLRLSCAASGFTFAVNAMGWYRQAPGKERELVAAISKSGGRTYYADSVKGRFTISRDNAKNTVYLQMNSLKPEDTAVYYCAADGPGYTYDYWGQGTQVTVSS	high polyreactivity
QVQLVESGGGLVQAGGSLRLSCAASGITFGDNVKGWYRQAPGKERELVAAISRIGDDTYYADSVKGRFTISRDNAKNTVYLQMNSLKPEDTAVYYCAAEYIYYIWSSYIDWDYYWVQGTQVTVSS	low polyreactivity
QVQLEESGGGLVQAGGSLRLSCAASGYIFDYNAMGWYRQAPGKERELVAVISRGGRTYYADSVKGRFTISRDNAKNTVYLQMNILKPEDTAVYYCAADRQSYPYDYWGQGTQVTVSS	high polyreactivity
QVQLVESGGGLVQAGGSLRLSCAASGGIFKRNTMGWYRQAPGKERELVAGISWTGGRTYYADSVKGRFTISSDNAKNNVYLPPNSLKPEDTAVYYCAAKPLQGVRRVEYWGQGTQVTVSS	high polyreactivity
QVQLVQSGGGLVQAGGSLRLSCSASGRIFSAYAMGWYRPAPGKERELVAAITWSGANTDYADSVKGRFTMSRDNAKYTVYLQMNSLKPEDTAVYYCNASVGRDSAYDYWGQGTQVTVSS	low polyreactivity
QVQLQESGGGMVQAGGSLRLSCAASGYISWADYMGWYRQAPGKERELVAGIGYGSTTYYADSVKGRFTISRDNAKNTAYLQMNSLKPEDTAVYYCAVGWYRVTAYKYWGQGTQVTVSS	low polyreactivity
QVQLVESGGGLVQAGGSLRLSCAASGRTFQNYAMGWYRQAPGKERELVADITSGGSTYADSVKGRFTISRDNAKNTVYLQMNSLKPEDTAVYYCNADRTYPEPAEYYYWGQGTQVTVSS	low polyreactivity
QVQLVESGGGLVQAGGSLRLSCAASGIIFGVYAMGWYRQAPGKERELVAAISRSGDSTYYADSVKGRFTISRDNAKNTVYLQMNSLKPEDTAVYYCAAEWYITFDYWGQGTQVTVSS	low polyreactivity
QVHLVESGGGLVQAGGSLRLSCAASGRISWGYAMGWDRQAPGKERELVAVINFNGGRTYYADSVKGRFTISRDNAKNTVYLQMNSLKPEDTAVYYCAADSGYEYDYWGQGTQVTVSS	low polyreactivity
QVQLVESGGGLVQAGGSLRLSCAACGFTFWDYAMGWYSQAPGKERELVAAISDNDGSTDYADSVKGRFTISRDNAKNTVYLQMNSLKPEDSAVYYCNAEIELPSKEGDYWGQGTQVTVSS	low polyreactivity
QVQLVESGGGLVQAGGSLRLSCAASGIIFRRYAMGWYRQAPGKERELVAAITGSGGSTYYADSVKGRFTISRDNAKNTVYLQMNSLKPEDTAVYYCAAQSLLRFASSRYNSWGQGTQVTVSS	high polyreactivity
QVQLVESGGGLVQAGGSLRLSCAASGFTFASNDMGWYRPAPGKERELVAAITKGGGRTYYADSVKGRFTISRDNAKNTVYLLMNSLKPEDTAVYYCAASQLIKYDYWGQGTEVTVSS	low polyreactivity

Sequence	polyreactivity (PSR sort gate)
QVQLVESGGGLVQAGGSLRLSCAASGRILYKYAMGWYRQAPGKERELVAAISRRGGSTFYADSVKGRFTISRDNAKNTVYLQMNSLKPEDTAVYYCAAGSTRYAGWTYNYWGQGTQVTVSS	high polyreactivity
QVNLVESGGGLVQAGGSLRLSCAAYGRTFRTNAMRCNRQEPGKERELFAAITYSGDSTYYADSVKGRFTISRDNEKNTVYLQMNSLKPEDTAVYYCNARLLSGPGYDYWRQGTQVTVSS	low polyreactivity
QVQLVESGGGLVQAGGSLGISCAACGSIFSVNAMGWFRQAPGKERELVAGITISGGRTYYADSVKGRFTISRDNAKNTVYLQKNSLKPEDTAVYYCAAYVDPAYYYWGPGTQVTVSS	low polyreactivity
QVQLVESGRGLVQARGSLRLSCAASGFIFYRYAMGWYRQAPGKEREFVAANTSTGTTYYADSVKGRFTISRDNAKNTVYLQMNSLKPEDTAVYYCNAGFRYKYQSSRVDYWGQGTQVTVSS	high polyreactivity
QVQLVESGGGLVQAGGSLRLSCAASGFTCPYYMGWYRQAPGKERELVADISWSDGSTYYADSVKGRFTISRDNAKNTVSLQMNSLKPEDTAVYYCAADYVSSWFYLPEYDYWGQGTQVTVSS	high polyreactivity
QVQLVESGGGLVQAGGSLRLSCAASGIIFEGNVMGWYRQAPGKERELVAAITSDTSTNYADSVKGRFTISRDNAKNTVYIQMNSLKPEDTAVYYCNAVIGTDYYYSGTAEFYYWGQGTQVTVSS	low polyreactivity
QVQLVESGGGLVQAGGSLRLSCAASGITFGSYAMGWYRQAPGKEREFVAAISLSGGNTYYADSVKGRFTISRDNAKNTVYLQMNSLKPEDTAVYYCAADYEYSGYGYWGQGTQVTGSS	high polyreactivity
QVQLVESGGGLVQAGGSLRLSCAASGITFKLYAIGWYRQAPGKERELVATINRGSSTYYADSVKGRFTISRDNAKNTVYLQMNSLKPEDTAVYYCAADNVRKWHKMDYWGQGTQVTVSS	high polyreactivity
QVQLVESGGGLVQAGGSLRLSCAASGFTIAKYAMGWYRQAPGKERELVAAISSSGGRTYYADSVKGRFTISRDIAKNTVYLQMNSLNPEDTAVYYCAADFSGPFDYWGQGTQVSVSS	high polyreactivity
QVQLVESGGCLVQAGGSLRLSCAASGSTFKTYTMGWYRQAPGKERELVAAITWSGGRTYYADSGKGRFTISRDNAKNTVYLQMNSLKPEDTAVYYCAADWGEEYTRDDYCGQGTQVTVSS	low polyreactivity
QVQLVESGGCLVQAGGSLRLSSAASGSTFRQYAMGWYRQAPGKERELVAAITWRGDNTYYADSVKGRFTISRDNAKNSVYLQMNSLKPEDTAVYYCAARWSYRLYWGYGYWGQGTQVTVSS	low polyreactivity
QVQLVESGGRLVQAGGSLRLSCAASGRTIYGNVMGWYRQAPGKERELVAVISWSSGSTSYADSVKGRFTISRDNAKNTVYLQMKSLKPEDTAVFYCAADSVTRPAGDYWGHGTQVTVSS	low polyreactivity
QVQLVESGGGLVQAGGSLRLSCAASGRIFKYYARGGYRQAPGKERELVAAISGSGGSTFYADSVKGRFTISRDNAKNTVYLQMNSLKPEDTAVYYCNADEVVWGYNYWGQGTQVTVSS	low polyreactivity
QVQLVESGGGLVQAGGSLRLSCAASGSTFAYYVMGWYRQAPGKERELVAAISRGGRTYYADSVKGSFTISRDNAKNTVYLQMNSLKPEDTSVYYCNKVYVVYSRSKGFYYTYLKYEYWGQGTQVTVSS	low polyreactivity
QVQLVESGGGLVQAGGSLRLSCAASGGWYRQAPGKERELVAAISWRDSSTYYADSVKGRFTISRDNAKNTVYLQMNSLKPEDTAVYYCAVRAYPWPEYYYWGQGTQVTVSS	low polyreactivity
QVQLVESGGGLVQAGGSLRLSCAASGYTFLYYAMGWYRQAPGKEREFVAAISRSGGSTYYADSVKGRFTISRDNAKNTVYLQMNSLKPEDTAVYYCAARFRYQHQRGDYWGQGTQVTVSS	high polyreactivity
QVQLVESGGGLVQAGGSLRLSCAASGSIFYRNAMGWYRQAPGKERELVAGITTRGGSTYYADSVKGRFTISRDNAKNTVYLQMNSLKPEDTAVYYCNKYYYYRDSGYWGQGTQVTVSS	high polyreactivity
QVQLVESGGGLVQAGGSLRLSCAASGRTFWYYAMGWYRQAPGKAREWVATISYRGGSTYYADSVKGRFTISRDNAKNTVNLQMNSLKPEDTAVYYCAAKQWWGGRPKVDYWGQGTQVTVSS	high polyreactivity
QGQLVESGGGLVQAGGSLRLSCAPSGFIFKFYAMGWYRQAPGKESELVAAITSSGGSTNYADSVKGRFTISRDNAKNTVYLQMISLKPEDTAVSYCAAQFPGVYYYIYDYWGQGTQVTVSS	high polyreactivity
QVQHVESRGGLVQAGGSLRLSCAASGFISRAYAMGWYRQAPGKERELVAAISVRVGSTYYADSVKGRFTISRDNAKNTVYLQMYSLKPEDTAVYYCAALRPWPRYDYWGQGTQVTVSS	high polyreactivity
QVQLVESGGRIVQAGGSLRLSCAASGFIYSKYAMGWSRPAPGKEGQLVAAISSSGGYTYYADSVKGRFTISRDNAKNTVYLQMNSLKPEATAVYYCNADYLFYAFDYWGHGTQVTVSS	low polyreactivity
